Assay results: the DeepSol protein solubility set

Assay: soluble on expression in E. coli; label from the status in PepcDB or PDB records

Sequence	soluble on expression in E. coli
MSLLNPVLLPPKVKAYLSQGERFIKWDDETTVASPVILRVDPKGYYLYWTYQSKEMEFLDITSIRDTRFGKFAKMPKSQKLRDVFNMDFPDNSFLLKTLTVVSGPDMVDLTFHNFVSYKENVGKAWAEDVLALVKHPLTANASRSTFLDKILVKLKMQLNSEGKIPVKNFFQMFPADRKRVEAALSACHLPKGKNDAINPEDFPEPVYKSFLMSLCPRPEIDEIFTSYHAKAKPYMTKEHLTKFINQKQRDSRLNSLLFPPARPDQVQGLIDKYEPSGINAQRGQLSPEGMVWFLCGPENSVLAQDKLLLHHDMTQPLNHYFINSSHNTYLTAGQFSGLSSAEMYRQVLLSGCRCVELDCWKGKPPDEEPIITHGFTMTTDIFFKEAIEAIAESAFKTSPYPIILSFENHVDSPRQQAKMAEYCRTIFGDMLLTEPLEKFPLKPGVPLPSPEDLRGKILIKNKKNQFSGPTSSSKDTGGEAEGSSPPSAPAVWAGEEGTELEEEEVEEEEEEESGNLDEEEIKKMQSDEGTAGLEVTAYEEMSSLVNYIQPTKFVSFEFSAQKNRSYVISSFTELKAYDLLSKASVQFVDYNKRQMSRIYPKGTRMDSSNYMPQMFWNAGCQMVALNFQTMDLPMQQNMAVFEFNGQSGYLLKHEFMRRPDKQFNPFSVDRIDVVVATTLSITVISGQFLSERSVRTYVEVELFGLPGDPKRRYRTKLSPSTNSINPVWKEEPFVFEKILMPELASLRVAVMEEGNKFLGHRIIPINALNSGYHHLCLHSESNMPLTMPALFIFLEMKD	soluble
MGSDKIHHHHHHMTKNARQTALDVLNDIFGNDAYANISLDRNLRDSELSTVDKAFVTALVYGVVSKKDLLEWHITPFLKKEPKPWAKMLLLLTVYQILFMDKVPTSAAVDEAVKIAKRRDGQATANFINAVLRNFMRSEHRNEEPKDWETKYSMPKLLLDKMVRQFGGKRTGEILESLEKPSHVSLRKIDPTVEISGTRASLLTESALIADSGNFAMTEEFQSGRITIQDETSQLVAPQLDLEGTEEVLDACAAPGGKSTHMAQYLTIGHITALDLYDHKLDLINQNAERQHVADKITTQKADATMIFEEFGSDKFDRILVDAPCSGIGLIRRKPDIRYRKESSDFVDLQKIQLEILNSASKSLKKSGIMVYSTCTIFDEENFDVVRQFLESHPNFEQVEISSDKADMIKEGCIFITPEMYHTDGFFIAKFKKIGE	not soluble
MKLESPLGSDLARLVRIWRALIDHRLKPLELTQTHWVTLHNIHQLPPDQSQIQLAKAIGIEQPSLVRTLDQLEEKGLISRQTCASDRRAKRIKLTEKAEPLISEMEAVINKTRAEILHGISAEELEQLITLIAKLEHNIIELQAKG	not soluble
MGSDKIHHHHHHMTTLDRKIDFTVILSVTKANPNGDPLNGNRPRQNYDGYGEISDVAIKRKIRNRLQDMGESIFVQSNDRNLDGYASLRDRAEANDTIKKLMKTKNASDQVAAEACATWMDVRAFGQVFAFKGDKAGGVSVGVRGPVSIHTATSVAPIDVTSMQITKSVNSESGKERGSDTMGMKHRVDHGVYVFNGSINTQLAEKTNFTQEDAEKFKLALVSLFENDASSARPEGSMEVHKVYWWEHDSKLGRFSSAKVHRAVSVQALTDEPKSFLDYEIKVDALEGFTPEILDGL	not soluble
MEMFKMSREMLQLAEALASEKNVDAEVVFQALEFALSTAAKKKADREHMDVRVQINRDTGEYQTFRRWLIVADEDYTYPDVEKTIEEIQEEIPDTTIQIGEYYEEQLPNEGFGRQAAQTAKQIILQRIRDAEREQNLNEFLAVKEDIVSGTVKRVERHGIIVEVVAGKLDALIPRDQMIPRENFRSGDRIRALFLRVEEIGNTGRKQIILSRTSGDFLVKLYANEVPEIADGMLEIRAVARDPGQRAKVAVKANDQRIDPQGTCIGVRGSRVNAVSNELSGERIDVVLWSPEPAQFVMSALSPAEVSRIVIDEDKHAVDVIVAEDRLALAIGRGGQNVRLASDLTGWQLNIMTSAEADERNAAEDAAIRRLFMNHLNVDEETADVLVQEGFATLEEVAYVPAAELLAIEGFDEEIVDMLRNRARDAILTMAIAAEEKLGEVSDDMRNLEGVDADMLLSLAEAGITTRDDLAELAVDELIEITGVNEETAKAVILTAREHWFTEDKLEHHHHHH	soluble
MKKPVHDMRQHIIDVARSLMTNKGYTAVGLAEVLITAGVPKGSFYYYFKSKEEFGQALLEEYFSEYLGRVDALMARPGTGAERLLAYFMYWSETQGTDLPEGKCLVVKLGAEVCDLSEDMRCVLEVGTAKIIQRISACVEMGVSDGSIHPEGDHQGFAESLYQLWLGASLLVKVNKSTESFDKALNMTKRLLK	not soluble
NSPITIGLALNKKLNNHWSIETGLQYIYLKSEFTTGKEYRIQKTQKLHYIGIPLRISYRFGNYKQFSFYSTAGLQMEIPIKGTLHTSHVTDSVPINLGYQSLDVPLQWSINASTGVQYHFTPHTSIYIEPTINYYIPDGSSLRTIRKEHPVTFSVPVGIRFSW	not soluble
QRRQMEMQSVNLVHEALSNQRLELFAQRVMNLQSPESLMYFEILVRIRDAQGNYVSPAIFIPASERYNIAHWIDKQVINQALEWFEQRPDVVEKLGRCSINLSGQSMGNQEFIDFLFERLKNSTMPCEKICLEITETAAMGNLDQAIDFFTRAKSLGCMIALDDFGSGLSSFGYLKKLPVDIVKIDGLFVRDIDVNEMDRVMVRSINDLAKQLGKVTVAEFVENEQVMQHLIDLGVDYGQGYGIGHPKPLAELVENLSSL	not soluble
GPSRVVYLGSIPYDQTEEQILDLCSNVGPVINLKMMFDPQTGRSKGYAFIEFRDLESSASAVRNLNGYQLGSRFLKCGYSSNSDISGVSQQQQQQYN	soluble
MNFHVMLTSSHETSFNFVVLLRANSKMKQQRNACRSCRLKECIKVGMNPRAVQGDIDTASTSSASPNLVSVEMHPYTNFREVECQTEVSTISSHPTSPSTLPFVSSGSSICSVSSSCSSVSTVYSNCLAMLPPNPSLPKYDYLLASLSRIFERVDEHAPEPLPNTYSFEHAFYNPHLICNRTKLTPTGERIATLPEVLQDFRRIFVLFTDVLSILPEFSRLDESDRMVLAKSRFSFFYWWLTCCWTAKVGCPGVCYANGAYHPSDKRQQAFPDVKGVTELSVETVSKPLANINITDAEMLVGSVFAIFYEYPLPPKVSYASTHILNEARDLYTQCMITVSPYSQLEAKSASRLAEISLIFSSITNLKYLTSDNIELSDVLHVMEVDQLITEAFDVHRPME	not soluble
MGSSHHHHHHSSGRENLYFQGMTLKAGIVGIGMIGSDHLRRLANTVSGVEVVAVCDIVAGRAQAALDKYAIEAKDYNDYHDLINDKDVEVVIITASNEAHADVAVAALNANKYVFCEKPLAVTAADCQRVIEAEQKNGKRMVQIGFMRRYDKGYVQLKNIIDSGEIGQPLMVHGRHYNASTVPEYKTPQAIYETLIHEIDVMHWLLNEDYKTVKVYFPRQSSLVTTLRDPQLVVMETTSGINIVVEVFVNCQYGYDIHCDVTGEKGMAELPTVASAAVRKAAKYSTDILVDWKQRFIDAYDIEFQDFFDRLNAGLPPAGPTSWDGYLAAVTADACVKSQETGNTEIVELPSKPDFYK	soluble
MGSDKIHHHHHHMMKQIIAMAGGGFSMEPDNLSLDQYILNQSKREQHRICFLPTASGDSQNYIQRFYHAFQTLDCVPSHLSLFKPPSSDLVSFVMEMDVIYVGGGNTRNLLVLWKEWGLDHILREAWKNGVVVAGISAGAICWFEEGVTDSAGPLTSLKSLGFLQGSFCPHYDGEKDRRPAYHQLISNKFLCSGYAADDGAALHFINDQLFQTVSSRSGAKAYRVMMAEHEIAEIPLPVKYVRVKLAEYYLYSSFFQIDFMIR	not soluble
MLKQSMHSFVLLYPNVLLEGWNVEKVSERYEGEKWGTFWFQVVTPTGMFRVKEFFLDIMEPVFPDSCISQAKGDCFQYKGLVYWKGINYKGKESYVTSIWKTQVEISVDHGYVNQDEMERFLFELQPVNMELGKTILHTSFHLLSFQAKRSEMGEIGRCREWNAPDDVSYVNLLIHEKLNWKLESVGFGNDETQYVYWDEVNKLYALWVCRHKNKAYYPISSWTMNYGPKQIINGLEFYSHPNRGTVVYEDLGNEQIAYVFRGNPCTNFEQVKELFACL	not soluble
